Data: US20030157685

Assays:
[1] = biological target: T1, endogenous Omi protein precipitated from 293 cells with the anti-Omi polyclonal antibody
T1 chain: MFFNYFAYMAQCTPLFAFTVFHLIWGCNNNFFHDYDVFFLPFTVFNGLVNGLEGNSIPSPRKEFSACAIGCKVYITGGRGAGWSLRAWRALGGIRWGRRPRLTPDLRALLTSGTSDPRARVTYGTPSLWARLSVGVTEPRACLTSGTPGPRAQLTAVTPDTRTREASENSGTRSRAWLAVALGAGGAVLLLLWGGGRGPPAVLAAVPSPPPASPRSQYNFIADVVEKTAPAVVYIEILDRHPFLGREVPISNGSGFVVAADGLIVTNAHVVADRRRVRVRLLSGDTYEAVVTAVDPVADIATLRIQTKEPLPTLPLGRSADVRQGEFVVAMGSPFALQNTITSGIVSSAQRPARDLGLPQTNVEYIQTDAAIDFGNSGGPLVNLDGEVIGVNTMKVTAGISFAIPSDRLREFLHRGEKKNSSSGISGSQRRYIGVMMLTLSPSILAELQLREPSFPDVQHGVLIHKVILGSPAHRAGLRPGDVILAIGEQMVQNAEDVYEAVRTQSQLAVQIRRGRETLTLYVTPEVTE

[2] = biological target: His-Max made in bacteria, P61244
His-Max made in bacteria, P61244, sequence (P61244 whole entry): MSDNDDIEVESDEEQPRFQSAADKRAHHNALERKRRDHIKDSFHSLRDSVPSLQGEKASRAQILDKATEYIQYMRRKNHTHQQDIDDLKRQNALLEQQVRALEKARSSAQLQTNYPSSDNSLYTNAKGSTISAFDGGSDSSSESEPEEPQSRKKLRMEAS

B1: Mxi2 as a hemaglutinin epitope-tagged fusion (Mxi2-HA), expressed in 293 cells (protein)
chain: MSQERPTFYRQELNKTIWEVPERYQNLSPVGSGAYGSVCAAFDTKTGLRVAVKKLSRPFQSIIHAKRTYRELRLLKHMKHENVIGLLDVFTPARSLEEFNDVYLVTHLMGADLNNIVKCQKLTDDHVQFLIYQILRGLKYIHSADIIHRDLKPSNLAVNEDCELKILDFGLARHTDDEMTGYVATRWYRAPEIMLNWMHYNQTVDIWSVGCIMAELLTGRTLFPGTDHIDQLKLILRLVGTPGAELLKKISSESARNYIQSLTQMPKMNFANVFIGANPLGKLTIYPHLMDIELVMI
phosphorylation of Omi by isolated HA-Mxi2 (autoradiograph) [1]: The autoradiograph shows Omi as well as Max protein was phosphorylated | phosphorylation of Omi in a kinase reaction on the immunoprecipitated Omi/Mxi2 complex ([gamma-32P]ATP, autoradiography) [1]: Phosphorylated Omi is shown as a doublet of phosphorylated polypeptides with a molecular weight of 57-59 kD | proteolytic activity of Omi (colorimetric assay, absorbance at 450 nm) [1]: the proteolytic activity of Omi increases dramatically when phosphorylated by Mxi2 | phosphorylation of Max by isolated HA-Mxi2 (autoradiograph) [2]: The autoradiograph shows Omi as well as Max protein was phosphorylated | phosphorylation of Max in the same kinase reaction [2]: Max was also phopshorylated very efficiently
